Measurements as given in patent publication US12616740B2, “Methods of using a GIP/GLP1 co-agonist for therapy” (ELI LILLY AND COMPANY, priority 2018, dated 2026).

Test: NCT03131687: nausea, vomiting and diarrhea, new events per interval
Assay type: in vivo, human
Method: Clinical Study (NCT03131687) Supporting Maintenance Dose Embodiments A 6-month (26-week) Phase 2 double-blind clinical study is designed to evaluate the safety, efficacy, and PK/PD of 4 dose levels (1 mg, 5 mg, 10 mg and 15 mg respectively) of tirzepatide once weekly by subcutaneous injection compared with dulaglutide 1.5 mg. once weekly (QW) and placebo QW in patients with T2DM who have inadequate glycemic control with diet and exercise with or without a stable dose of metformin. Tirzepatide dose is up-titrated to the maintenance dose using the following weekly dose increments:
The study also has a 4-week follow up period. In addition to safety and efficacy for treating T2DM, efficacy endpoints include the effect of tirzepatide on HbA1c, FBG, body weight, lipids, and waist circumference compared with placebo and with dulaglutide 1.5 mg. The study also evaluates the effect of tirzepatide on GI tolerability, hypoglycemia, hypersensitivity reactions, and pancreatic safety, as well as the development of treatment-emergent anti-drug antibodies. Model-based dose response analyses are performed to predict potential for significant HbA1c lowering and weight loss in longer studies. Statistical Analyses: Efficacy: The primary efficacy outcome of HbA1c change from baseline to the 26-week endpoint is analyzed using a Bayesian dose-response model. Analyses are performed on the intention to treat population (mITT) analysis set. Supportive analysis of the primary efficacy outcome for the mITT dataset are the model for post-baseline measures (MMRM) with body mass index (BMI) (<30 kg/m^2, ≥30 kg/m^2), metformin use, treatment, visit, and treatment-by-visit interaction as fixed effects, baseline HbA1c as a covariate, and patient as a random effect. The mean weight change from baseline at 12 and 26 weeks, along with the mean change from baseline of HbA1c at 12 weeks, is analyzed using similar dose-response models as the primary analyses. The percentages of patients with ≥5% or ≥10% body weight loss, reaching the HbA1c target of ≤6.5% or ≤7.0% at 26 weeks, or requiring rescue therapy are analyzed using logistic regression with fixed effects of treatment and strata, and baseline as a covariate. The changes from baseline in FBG (fasting blood glucose), SMBG (self-monitored blood glucose) levels, waist circumference, and mean percentage change in lipids from baseline to 12 and 26 weeks are analyzed using a similar MMRM to the one used for the primary analyses. Table Abbreviations: Dula 1.5 mg=dulaglutide 1.5 mg once weekly; LY means tirzepatide, and LY 1 mg=tirzepatide 1 mg once weekly; LY 5 mg=5 mg once weekly; LY 10 mg=escalation dose group tirzepatide once weekly with highest dose of 10 mg; LY 15 mg=escalation dose group of tirzepatide once weekly with highest dose 15 mg; LOCF=last observation-carried-forward; N=number of patients; pbo=placebo; Week 26=mITT on-treatment data at Week 26 excluding data after study drug discontinuation or rescue drug initiation; mITT=modified intent-to-treat; SD=standard deviation. For Table 4, n=number of patients in the population with baseline and post-baseline value at the specified time point. For Table 6, LY10 mg=escalation dose group tirzepatide, once weekly with highest dose of 10 mg; escalation dose: (5 mg weeks 0 and 1), LY15 mg=escalation dose group tirzepatide, once weekly with highest dose of 15 mg; escalation dose: (5 mg weeks 0 and 1; 10 mg weeks 2 to 5); N=number of patients in specified group, m=number of patients who experienced new event during interval, FolUp=follow up, T/Wk=Time range, (week) and %=means percent patients spending at least some time in treatment group who experienced new event during interval. For Table 7, n is the number of patients with events meeting the criteria; N is number of patients in the population; % is percent of patients in treatment group experiencing the event.

[1] = LY10 mg (tirzepatide 5 mg weeks 0 and 1, then 10 mg once weekly), N = 51, Fol Up (follow up)
[2] = LY10 mg (tirzepatide 5 mg weeks 0 and 1, then 10 mg once weekly), N = 51, T/Wk 0
[3] = LY10 mg (tirzepatide 5 mg weeks 0 and 1, then 10 mg once weekly), N = 51, T/Wk 1
[4] = LY10 mg (tirzepatide 5 mg weeks 0 and 1, then 10 mg once weekly), N = 51, T/Wk 2
[5] = LY10 mg (tirzepatide 5 mg weeks 0 and 1, then 10 mg once weekly), N = 51, T/Wk 3
[6] = LY10 mg (tirzepatide 5 mg weeks 0 and 1, then 10 mg once weekly), N = 51, T/Wk 4
[7] = LY10 mg (tirzepatide 5 mg weeks 0 and 1, then 10 mg once weekly), N = 51, T/Wk 5
[8] = LY10 mg (tirzepatide 5 mg weeks 0 and 1, then 10 mg once weekly), N = 51, T/Wk 6
[9] = LY10 mg (tirzepatide 5 mg weeks 0 and 1, then 10 mg once weekly), N = 51, T/Wk 7
[10] = LY10 mg (tirzepatide 5 mg weeks 0 and 1, then 10 mg once weekly), N = 51, T/Wk 8
[11] = LY10 mg (tirzepatide 5 mg weeks 0 and 1, then 10 mg once weekly), N = 51, T/Wk 9
[12] = LY10 mg (tirzepatide 5 mg weeks 0 and 1, then 10 mg once weekly), N = 51, T/Wk 10
[13] = LY10 mg (tirzepatide 5 mg weeks 0 and 1, then 10 mg once weekly), N = 51, T/Wk 11
[14] = LY10 mg (tirzepatide 5 mg weeks 0 and 1, then 10 mg once weekly), N = 51, T/Wk 12
[15] = LY10 mg (tirzepatide 5 mg weeks 0 and 1, then 10 mg once weekly), N = 51, T/Wk >12 < 16
[16] = LY10 mg (tirzepatide 5 mg weeks 0 and 1, then 10 mg once weekly), N = 51, T/Wk >16 ≤ 20
[17] = LY10 mg (tirzepatide 5 mg weeks 0 and 1, then 10 mg once weekly), N = 51, T/Wk >20
[18] = LY15 mg (tirzepatide 5 mg weeks 0 and 1; 10 mg weeks 2 to 5; then 15 mg once weekly), N = 53, Fol Up (follow up)
[19] = LY15 mg (tirzepatide 5 mg weeks 0 and 1; 10 mg weeks 2 to 5; then 15 mg once weekly), N = 53, T/Wk 0
[20] = LY15 mg (tirzepatide 5 mg weeks 0 and 1; 10 mg weeks 2 to 5; then 15 mg once weekly), N = 53, T/Wk 1
[21] = LY15 mg (tirzepatide 5 mg weeks 0 and 1; 10 mg weeks 2 to 5; then 15 mg once weekly), N = 53, T/Wk 2
[22] = LY15 mg (tirzepatide 5 mg weeks 0 and 1; 10 mg weeks 2 to 5; then 15 mg once weekly), N = 53, T/Wk 3

## tirzepatide [LY]
[1]
  Nausea Vomiting and Diarrhea: % patients who experienced new event during interval: 2.1%
  Nausea Vomiting and Diarrhea: m, number of patients who experienced new event during interval: 1
[2]
  Nausea Vomiting and Diarrhea: % patients who experienced new event during interval: 20%
  Nausea Vomiting and Diarrhea: m, number of patients who experienced new event during interval: 9
[3]
  Nausea Vomiting and Diarrhea: % patients who experienced new event during interval: 3.9%
  Nausea Vomiting and Diarrhea: m, number of patients who experienced new event during interval: 2
[4]
  Nausea Vomiting and Diarrhea: % patients who experienced new event during interval: 3.9%
  Nausea Vomiting and Diarrhea: m, number of patients who experienced new event during interval: 2
[5]
  Nausea Vomiting and Diarrhea: % patients who experienced new event during interval: 2.0%
  Nausea Vomiting and Diarrhea: m, number of patients who experienced new event during interval: 1
[6]
  Nausea Vomiting and Diarrhea: % patients who experienced new event during interval: 6.0%
  Nausea Vomiting and Diarrhea: m, number of patients who experienced new event during interval: 3
[7]
  Nausea Vomiting and Diarrhea: % patients who experienced new event during interval: 4.0%
  Nausea Vomiting and Diarrhea: m, number of patients who experienced new event during interval: 2
[8]
  Nausea Vomiting and Diarrhea: % patients who experienced new event during interval: 2.0%
  Nausea Vomiting and Diarrhea: m, number of patients who experienced new event during interval: 1
[9]
  Nausea Vomiting and Diarrhea: % patients who experienced new event during interval: 4.1%
  Nausea Vomiting and Diarrhea: m, number of patients who experienced new event during interval: 2
[10]
  Nausea Vomiting and Diarrhea: % patients who experienced new event during interval: 2.0%
  Nausea Vomiting and Diarrhea: m, number of patients who experienced new event during interval: 1
[11]
  Nausea Vomiting and Diarrhea: % patients who experienced new event during interval: 4.1%
  Nausea Vomiting and Diarrhea: m, number of patients who experienced new event during interval: 2
[12]
  Nausea Vomiting and Diarrhea: % patients who experienced new event during interval: m = 0; 0%
  Nausea Vomiting and Diarrhea: m, number of patients who experienced new event during interval: m = 0; 0%
[13]
  Nausea Vomiting and Diarrhea: % patients who experienced new event during interval: m = 0; 0%
  Nausea Vomiting and Diarrhea: m, number of patients who experienced new event during interval: m = 0; 0%
[14]
  Nausea Vomiting and Diarrhea: % patients who experienced new event during interval: 2.0%
  Nausea Vomiting and Diarrhea: m, number of patients who experienced new event during interval: 1
[15]
  Nausea Vomiting and Diarrhea: % patients who experienced new event during interval: 2.0%
  Nausea Vomiting and Diarrhea: m, number of patients who experienced new event during interval: 1
[16]
  Nausea Vomiting and Diarrhea: % patients who experienced new event during interval: 2.1%
  Nausea Vomiting and Diarrhea: m, number of patients who experienced new event during interval: 1
[17]
  Nausea Vomiting and Diarrhea: % patients who experienced new event during interval: 2.1%
  Nausea Vomiting and Diarrhea: m, number of patients who experienced new event during interval: 1
[18]
  Nausea Vomiting and Diarrhea: % patients who experienced new event during interval: 0.0%
  Nausea Vomiting and Diarrhea: m, number of patients who experienced new event during interval: 0
[19]
  Nausea Vomiting and Diarrhea: % patients who experienced new event during interval: 32.1%
  Nausea Vomiting and Diarrhea: m, number of patients who experienced new event during interval: 17
[20]
  Nausea Vomiting and Diarrhea: % patients who experienced new event during interval: 18.9%
  Nausea Vomiting and Diarrhea: m, number of patients who experienced new event during interval: 10
[21]
  Nausea Vomiting and Diarrhea: % patients who experienced new event during interval: 5.8%
  Nausea Vomiting and Diarrhea: m, number of patients who experienced new event during interval: 3
[22]
  Nausea Vomiting and Diarrhea: % patients who experienced new event during interval: 11.4%
  Nausea Vomiting and Diarrhea: m, number of patients who experienced new event during interval: 6
